B1: cytosolic tail (CT) of integrin β2 (residues K724-S769) (domain or fragment, UniProt P05107 724-769, looked up)
chain: KALIHLSDLREYRRFEKEKLKSQWNNDNPLFKSATTTVMNPKFAES
notes: integrin β2 (CD18) cytosolic tail, residues K724-S769; Used 15N-labelled in one direction of the titration and unlabelled in the other; also called β2 CT; CT of β2; source: E. coli BL21DE3, KSI fusion in inclusion bodies, purified (Ni-NTA in 8 M urea, cyanogen bromide cleavage, HPLC); not shown: ketosteroid isomerase (KSI), N-terminal, cleaved
B2: cytosolic tail (CT) of integrin αX (residues K1129-K1163) (domain or fragment, UniProt P20702 1129-1163, looked up)
chain: KVGFFKRQYKEMMEEANGQIAPENGTQTPSPPSEK
notes: integrin αX (CD11c) cytosolic tail, residues K1129-K1163, 35 residues; Used 15N-labelled in one direction of the titration and unlabelled in the other; A GGGGSDP linker lay between KSI and the tail, and formic acid cleaves at the Asp-Pro site, so a Pro may remain at the N-terminus (surmised); The myristoylated synthetic αX CT (GL Biochem) was used only for the structure in DPC micelles, not for …

Test [1] concerns the target B2. The experiment in a line: NMR titration; 15N-1H HSQC; 15N-labelled CT titrated with the unlabelled cognate CT up to two times its concentration (1:2); 10 mM sodium phosphate buffer, pH 6.5, aqueous solution; done in both directions. The following applies: both partners purified.
In test [2] the target is B1. The test is described as above. The following applies: both partners purified.

For B1, the binding result in test [1] is “binds”.
B2: the binding result in test [2] is “binds”.

The values are drawn from publication PMC3406025, “Structure and Binding Interface of the Cytosolic Tails of αXβ2 Integrin” (PLoS ONE, 2012).
